From patent US10875904B2

Target: ovalbumin peptide SIINFEKL presented on mouse MHC Class I H-2Kb on OP9-DL1 cells (mouse) (UniProt P01901)
Assay: cell-based or functional assay

UniProt P01901, sequence (P01901 22-369): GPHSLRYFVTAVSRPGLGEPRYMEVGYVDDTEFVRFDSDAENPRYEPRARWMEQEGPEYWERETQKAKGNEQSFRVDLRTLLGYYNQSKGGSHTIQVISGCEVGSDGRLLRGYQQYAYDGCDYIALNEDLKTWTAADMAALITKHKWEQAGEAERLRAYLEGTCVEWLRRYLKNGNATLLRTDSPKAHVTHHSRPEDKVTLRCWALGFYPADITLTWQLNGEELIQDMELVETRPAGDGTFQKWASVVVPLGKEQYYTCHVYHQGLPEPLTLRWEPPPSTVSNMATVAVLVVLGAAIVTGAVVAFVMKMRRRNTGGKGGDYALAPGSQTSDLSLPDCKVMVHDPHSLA

## OT-1 transgenic TCR (specific for ovalbumin peptide SIINFEKL presented on H-2Kb)
  development or survival of double positive (DP) T cells from OT-1 progenitors in OP9-DL1 culture, flow cytometry: > 0.01 µM
